Biological target: biotinylated 10-mer C-terminal PBM peptide of DGKζ (human) (UniProt Q13574)
Sequence (Q13574 whole entry, looked up, tested part not stated): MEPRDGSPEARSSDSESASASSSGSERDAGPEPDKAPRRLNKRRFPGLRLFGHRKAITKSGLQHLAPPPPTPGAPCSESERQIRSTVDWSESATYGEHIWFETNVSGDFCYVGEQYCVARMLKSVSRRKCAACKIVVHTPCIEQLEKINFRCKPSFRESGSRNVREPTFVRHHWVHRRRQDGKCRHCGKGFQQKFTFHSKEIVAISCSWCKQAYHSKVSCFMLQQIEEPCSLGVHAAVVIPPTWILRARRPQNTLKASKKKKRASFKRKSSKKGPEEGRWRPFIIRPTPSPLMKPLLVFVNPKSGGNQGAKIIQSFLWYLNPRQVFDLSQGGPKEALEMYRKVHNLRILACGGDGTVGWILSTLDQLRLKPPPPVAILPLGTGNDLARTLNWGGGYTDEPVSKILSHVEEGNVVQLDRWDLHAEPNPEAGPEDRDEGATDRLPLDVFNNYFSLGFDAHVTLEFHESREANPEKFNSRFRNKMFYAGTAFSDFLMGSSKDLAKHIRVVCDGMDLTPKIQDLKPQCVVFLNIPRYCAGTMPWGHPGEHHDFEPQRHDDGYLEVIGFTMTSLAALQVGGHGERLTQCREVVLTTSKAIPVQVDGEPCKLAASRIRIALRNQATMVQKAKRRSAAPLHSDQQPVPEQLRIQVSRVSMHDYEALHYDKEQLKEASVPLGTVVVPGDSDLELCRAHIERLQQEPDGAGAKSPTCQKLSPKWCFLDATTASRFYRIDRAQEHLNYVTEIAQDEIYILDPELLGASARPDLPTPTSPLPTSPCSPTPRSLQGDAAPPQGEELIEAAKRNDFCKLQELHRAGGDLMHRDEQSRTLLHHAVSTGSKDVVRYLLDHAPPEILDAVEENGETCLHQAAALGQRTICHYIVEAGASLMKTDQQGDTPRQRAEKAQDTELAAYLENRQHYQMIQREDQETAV

Kd: 24 µM
Substance: SCRIB
